{"source": "patent US10967068B2", "about": "“Stability-modulating linkers for use with antibody drug conjugates” (priority 2014, dated 2021)", "assay": "In Vitro Stability Assay—Mouse Plasma", "assay_type": "in vitro ADME", "conditions": "attachment position L11B; for Conjugate stability (%): % DAR remaining after plasma 3 or 4.5 days; for DAR: before plasma incubation", "note": "*1 amine or outer side, *2 acyl side, *3 side chain or, on linkers, in order; H or OH if unused. Where a SMILES comes first, the peptide text is derived from it. [ ]: non-standard residue; d: D form. The star is where a group is joined. Dolaproine = CO[C@@H]([C@@H]1CCCN1)[C@@H](C)C(=O)O; Dil = CC[C@H](C)[C@H](NC)[C@@H](CC(=O)O)OC; PABC = O=C(OCc1ccc(N[*:1])cc1)[*:2]; Doe = c1ccc(C[C@H](N*)c2nccs2)cc1; Cit = NC(=O)NCCC[C@H](N)C(=O)O; Aib = CC(C)(N)C(=O)O; X2 = CC1(C(=O)*)COC1; Moc = COC(=O)*", "data": [{"molecule": "CC[C@H](C)[C@@H]([C@@H](CC(=O)N1CCC[C@H]1[C@H](OC)[C@@H](C)C(=O)N[C@@H](Cc1ccccc1)c1nccs1)OC)N(C)C(=O)[C@@H](NC(=O)C(C)(C)NC(=O)OCc1ccc(NC(=O)[C@H](CCCNC(N)=O)NC(=O)[C@@H](NC(=O)[C@H](CCCCN)NC(=O)CN)C(C)C)cc1)C(C)C", "note": "[Example 29, glycyl-L-lysylvalyl-N-{4-[(8S,11S,12R)-11-[(2S)-butan-2-yl]-12-(2-{(2S)-2-[(1R,2R)-1-methoxy-2-methyl-3-oxo-3-{[(1S)-2-phenyl-1-(1,3-thiazol-2-yl)ethyl]amino}propyl]pyrrolidin-1-yl}-2-oxoethyl)-5,5,10-trimethyl-3,6,9-trioxo-8-(propan-2-yl)-2,13-dioxa-4,7,10-triazatetradec-1-yl]phenyl}-N˜5˜-carbamoyl-L-ornithinamide] (H-GKV[Cit][PABC][Aib]V[Dil][Dolaproine]-Doe)", "values": [{"measurement": "DAR after plasma incubation for 3 to 4.5 days", "value": 1.46}, {"measurement": "Conjugate stability (%)", "value": 81, "unit": "%"}, {"measurement": "DAR", "value": 1.80}]}, {"molecule": "CC[C@H](C)[C@@H]([C@@H](CC(=O)N1CCC[C@H]1[C@H](OC)[C@@H](C)C(=O)N[C@@H](Cc1ccccc1)c1nccs1)OC)N(C)C(=O)[C@@H](NC(=O)C(C)(C)NC(=O)OCc1ccc(NC(=O)[C@H](CCCNC(N)=O)NC(=O)[C@@H](NC(=O)[C@H](CCCCN)NC(=O)C2(C)COC2)C(C)C)cc1)C(C)C", "note": "[Example 30, N˜2˜-[(3-methyloxetan-3-yl)carbonyl]-L-lysyl-L-valyl-N-{4-[(8S,11S,12R)-11-[(2S)-butan-2-yl]-12-(2-{(2S)-2-[(1R,2R)-1-methoxy-2-methyl-3-oxo-3-{[(1S)-2-phenyl-1-(1,3-thiazol-2-yl)ethyl]amino}propyl]pyrrolidin-1-yl}-2-oxoethyl)-5,5,10-trimethyl-3,6,9-trioxo-8-(propan-2-yl)-2,13-dioxa-4,7,10-triazatetradec-1-yl]phenyl}-N˜5˜-carbamoyl-L-ornithinamide] (X2-KV[Cit][PABC][Aib]V[Dil][Dolaproine]-Doe)", "values": [{"measurement": "DAR after plasma incubation for 3 to 4.5 days", "value": 0.06}, {"measurement": "Conjugate stability (%)", "value": 5, "unit": "%"}, {"measurement": "DAR", "value": 1.27}]}, {"molecule": "CC[C@H](C)[C@@H]([C@@H](CC(=O)N1CCC[C@H]1[C@H](OC)[C@@H](C)C(=O)N[C@@H](Cc1ccccc1)c1nccs1)OC)N(C)C(=O)[C@@H](NC(=O)C(C)(C)NC(=O)OCc1ccc(NC(=O)[C@H](CCCNC(N)=O)NC(=O)[C@@H](NC(=O)[C@H](CCCCN)NC(=O)C(C)(C)N)C(C)C)cc1)C(C)C", "note": "[Example 31, 2-methylalanyl-L-lysylvalyl-N-{4-[(8S,11S,12R)-11-[(2S)-butan-2-yl]-12-(2-{(2S)-2-[(1R,2R)-1-methoxy-2-methyl-3-oxo-3-{[(1S)-2-phenyl-1-(1,3-thiazol-2-yl)ethyl]amino}propyl]pyrrolidin-1-yl}-2-oxoethyl)-5,5,10-trimethyl-3,6,9-trioxo-8-(propan-2-yl)-2,13-dioxa-4,7,10-triazatetradec-1-yl]phenyl}-N˜5˜-carbamoyl-L-ornithinamide] (H-[Aib]KV[Cit][PABC][Aib]V[Dil][Dolaproine]-Doe)", "values": [{"measurement": "DAR after plasma incubation for 3 to 4.5 days", "value": 0.03}, {"measurement": "Conjugate stability (%)", "value": 2, "unit": "%"}, {"measurement": "DAR", "value": 1.77}]}, {"molecule": "CC[C@H](C)[C@@H]([C@@H](CC(=O)N1CCC[C@H]1[C@H](OC)[C@@H](C)C(=O)N[C@@H](Cc1ccccc1)c1nccs1)OC)N(C)C(=O)[C@@H](NC(=O)C(C)(C)NC(=O)OCc1ccc(NC(=O)[C@H](CCCNC(N)=O)NC(=O)[C@@H](NC(=O)[C@H](CCCCN)NC(=O)OC)C(C)C)cc1)C(C)C", "note": "[Example 32, N˜2˜-(methoxycarbonyl)-L-lysylvalyl-N-{4-[(8S,11S,12R)-11-[(2S)-butan-2-yl]-12-(2-{(2S)-2-[(1R,2R)-1-methoxy-2-methyl-3-oxo-3-{[(1S)-2-phenyl-1-(1,3-thiazol-2-yl)ethyl]amino}propyl]pyrrolidin-1-yl}-2-oxoethyl)-5,5,10-trimethyl-3,6,9-trioxo-8-(propan-2-yl)-2,13-dioxa-4,7,10-triazatetradec-1-yl]phenyl}-N˜5˜-carbamoyl-L-ornithinamide] (Moc-KV[Cit][PABC][Aib]V[Dil][Dolaproine]-Doe)", "values": [{"measurement": "DAR after plasma incubation for 3 to 4.5 days", "value": 0.08}, {"measurement": "Conjugate stability (%)", "value": 5, "unit": "%"}, {"measurement": "DAR", "value": 1.53}]}, {"molecule": "CC[C@H](C)[C@@H]([C@@H](CC(=O)N1CCC[C@H]1[C@H](OC)[C@@H](C)C(=O)N[C@@H](Cc1ccccc1)c1nccs1)OC)N(C)C(=O)[C@@H](NC(=O)C(C)(C)NC(=O)OCc1ccc(NC(=O)[C@H](CCCNC(N)=O)NC(=O)[C@@H](NC(=O)[C@@H](N)CCCCN)C(C)C)cc1)C(C)C", "note": "[Example 33, L-lysylvalyl-N-{4-[(8S,11S,12R)-11-[(2S)-butan-2-yl]-12-(2-{(2S)-2-[(1R,2R)-1-methoxy-2-methyl-3-oxo-3-{[(1S)-2-phenyl-1-(1,3-thiazol-2-yl)ethyl]amino}propyl]pyrrolidin-1-yl}-2-oxoethyl)-5,5,10-trimethyl-3,6,9-trioxo-8-(propan-2-yl)-2,13-dioxa-4,7,10-triazatetradec-1-yl]phenyl}-N˜5˜-carbamoyl-L-ornithinamide] (H-KV[Cit][PABC][Aib]V[Dil][Dolaproine]-Doe)", "values": [{"measurement": "DAR after plasma incubation for 3 to 4.5 days", "value": 0.52}, {"measurement": "Conjugate stability (%)", "value": 34, "unit": "%"}, {"measurement": "DAR", "value": 1.53}]}, {"molecule": "CC[C@H](C)[C@@H]([C@@H](CC(=O)N1CCC[C@H]1[C@H](OC)[C@@H](C)C(=O)N[C@@H](Cc1ccccc1)c1nccs1)OC)N(C)C(=O)[C@@H](NC(=O)C(C)(C)NC(=O)OCc1ccc(NC(=O)[C@H](CCCNC(N)=O)NC(=O)[C@@H](NC(=O)[C@H](CCCCN)NC(=O)[C@H](C)N)C(C)C)cc1)C(C)C", "note": "[Example 34, L-alanyl-L-lysylvalyl-N-{4-[(8S,11S,12R)-11-[(2S)-butan-2-yl]-12-(2-{(2S)-2-[(1R,2R)-1-methoxy-2-methyl-3-oxo-3-{[(1S)-2-phenyl-1-(1,3-thiazol-2-yl)ethyl]amino}propyl]pyrrolidin-1-yl}-2-oxoethyl)-5,5,10-trimethyl-3,6,9-trioxo-8-(propan-2-yl)-2,13-dioxa-4,7,10-triazatetradec-1-yl]phenyl}-N˜5˜-carbamoyl-L-ornithinamide] (H-AKV[Cit][PABC][Aib]V[Dil][Dolaproine]-Doe)", "values": [{"measurement": "DAR after plasma incubation for 3 to 4.5 days", "value": 0.86}, {"measurement": "Conjugate stability (%)", "value": 50, "unit": "%"}, {"measurement": "DAR", "value": 1.72}]}, {"molecule": "CC[C@H](C)[C@@H]([C@@H](CC(=O)N1CCC[C@H]1[C@H](OC)[C@@H](C)C(=O)N[C@@H](Cc1ccccc1)c1nccs1)OC)N(C)C(=O)[C@@H](NC(=O)C(C)(C)NC(=O)OCc1ccc(NC(=O)[C@H](CCCNC(N)=O)NC(=O)[C@@H](NC(=O)[C@H](CCCCN)NC(=O)[C@@H](C)N)C(C)C)cc1)C(C)C", "note": "[Example 35, D-alanyl-L-lysylvalyl-N-{4-[(8S,11S,12R)-11-[(2S)-butan-2-yl]-12-(2-{(2S)-2-[(1R,2R)-1-methoxy-2-methyl-3-oxo-3-{[(1S)-2-phenyl-1-(1,3-thiazol-2-yl)ethyl]amino}propyl]pyrrolidin-1-yl}-2-oxoethyl)-5,5,10-trimethyl-3,6,9-trioxo-8-(propan-2-yl)-2,13-dioxa-4,7,10-triazatetradec-1-yl]phenyl}-N˜5˜-carbamoyl-L-ornithinamide] (H-[dA]KV[Cit][PABC][Aib]V[Dil][Dolaproine]-Doe)", "values": [{"measurement": "DAR after plasma incubation for 3 to 4.5 days", "value": 1.07}, {"measurement": "Conjugate stability (%)", "value": 58, "unit": "%"}, {"measurement": "DAR", "value": 1.82}]}]}
